# According to paper PMC3265891 (The Journal of Biological Chemistry, 2011):
# Experiments:
# [1] = molecular target: the molecule itself; test: SEC
# [2] = molecular target: the molecule itself; test: crystal structure
Protein,stoichiometry N [1],binding result [2]
"human UDP-glucose 6-dehydrogenase E161Q mutant (C-terminally truncated) (enzyme, UniProt O60701 1-467, looked up) MFEIKKICCIGAGYVGGPTCSVIAHMCPEIRVTVVDVNESRINAWNSPTLPIYEPGLKEVVESCRGKNLFFSTNIDDAIKEADLVFISVNTPTKTYGMGKGRAADLKYIEACARRIVQNSNGYKIVTEKSTVPVRAAESIRRIFDANTKPNLNLQVLSNPQFLAEGTAIKDLKNPDRVLIGGDETPEGQRAVQALCAVYEHWVPREKILTTNTWSSELSKLAANAFLAQRISSINSISALCEATGADVEEVATAIGMDQRIGNKFLKASVGFGGSCFQKDVLNLVYLCEALNLPEVARYWQQVIDMNDYQRRRFASRIIDSLFNTVTDKKIAILGFAFKKDTGDTRESSSIYISKYLMDEGAHLHIYDPKVPREQIVVDLSHPGVSEDDQVSRLVTISKDPYEACDGAHAVVICTEWDMFKELDYERIHKKMLKPAFIFDGRRVLDGLHNELQTIGFQIETIGKKVS",6,
"human UDP-glucose 6-dehydrogenase N224A mutant (C-terminally truncated) (enzyme, UniProt O60701 1-467, looked up) MFEIKKICCIGAGYVGGPTCSVIAHMCPEIRVTVVDVNESRINAWNSPTLPIYEPGLKEVVESCRGKNLFFSTNIDDAIKEADLVFISVNTPTKTYGMGKGRAADLKYIEACARRIVQNSNGYKIVTEKSTVPVRAAESIRRIFDANTKPNLNLQVLSNPEFLAEGTAIKDLKNPDRVLIGGDETPEGQRAVQALCAVYEHWVPREKILTTNTWSSELSKLAAAAFLAQRISSINSISALCEATGADVEEVATAIGMDQRIGNKFLKASVGFGGSCFQKDVLNLVYLCEALNLPEVARYWQQVIDMNDYQRRRFASRIIDSLFNTVTDKKIAILGFAFKKDTGDTRESSSIYISKYLMDEGAHLHIYDPKVPREQIVVDLSHPGVSEDDQVSRLVTISKDPYEACDGAHAVVICTEWDMFKELDYERIHKKMLKPAFIFDGRRVLDGLHNELQTIGFQIETIGKKVS",6,
"human UDP-glucose 6-dehydrogenase K220A mutant (C-terminally truncated) (enzyme, UniProt O60701 1-467, looked up) MFEIKKICCIGAGYVGGPTCSVIAHMCPEIRVTVVDVNESRINAWNSPTLPIYEPGLKEVVESCRGKNLFFSTNIDDAIKEADLVFISVNTPTKTYGMGKGRAADLKYIEACARRIVQNSNGYKIVTEKSTVPVRAAESIRRIFDANTKPNLNLQVLSNPEFLAEGTAIKDLKNPDRVLIGGDETPEGQRAVQALCAVYEHWVPREKILTTNTWSSELSALAANAFLAQRISSINSISALCEATGADVEEVATAIGMDQRIGNKFLKASVGFGGSCFQKDVLNLVYLCEALNLPEVARYWQQVIDMNDYQRRRFASRIIDSLFNTVTDKKIAILGFAFKKDTGDTRESSSIYISKYLMDEGAHLHIYDPKVPREQIVVDLSHPGVSEDDQVSRLVTISKDPYEACDGAHAVVICTEWDMFKELDYERIHKKMLKPAFIFDGRRVLDGLHNELQTIGFQIETIGKKVS",6,
"human UDP-glucose 6-dehydrogenase D280A mutant (C-terminally truncated) (enzyme, UniProt O60701 1-467, looked up) MFEIKKICCIGAGYVGGPTCSVIAHMCPEIRVTVVDVNESRINAWNSPTLPIYEPGLKEVVESCRGKNLFFSTNIDDAIKEADLVFISVNTPTKTYGMGKGRAADLKYIEACARRIVQNSNGYKIVTEKSTVPVRAAESIRRIFDANTKPNLNLQVLSNPEFLAEGTAIKDLKNPDRVLIGGDETPEGQRAVQALCAVYEHWVPREKILTTNTWSSELSKLAANAFLAQRISSINSISALCEATGADVEEVATAIGMDQRIGNKFLKASVGFGGSCFQKAVLNLVYLCEALNLPEVARYWQQVIDMNDYQRRRFASRIIDSLFNTVTDKKIAILGFAFKKDTGDTRESSSIYISKYLMDEGAHLHIYDPKVPREQIVVDLSHPGVSEDDQVSRLVTISKDPYEACDGAHAVVICTEWDMFKELDYERIHKKMLKPAFIFDGRRVLDGLHNELQTIGFQIETIGKKVS",6,
"human UDP-glucose 6-dehydrogenase T131S mutant (C-terminally truncated) (enzyme, UniProt O60701 1-467, looked up) MFEIKKICCIGAGYVGGPTCSVIAHMCPEIRVTVVDVNESRINAWNSPTLPIYEPGLKEVVESCRGKNLFFSTNIDDAIKEADLVFISVNTPTKTYGMGKGRAADLKYIEACARRIVQNSNGYKIVTEKSSVPVRAAESIRRIFDANTKPNLNLQVLSNPEFLAEGTAIKDLKNPDRVLIGGDETPEGQRAVQALCAVYEHWVPREKILTTNTWSSELSKLAANAFLAQRISSINSISALCEATGADVEEVATAIGMDQRIGNKFLKASVGFGGSCFQKDVLNLVYLCEALNLPEVARYWQQVIDMNDYQRRRFASRIIDSLFNTVTDKKIAILGFAFKKDTGDTRESSSIYISKYLMDEGAHLHIYDPKVPREQIVVDLSHPGVSEDDQVSRLVTISKDPYEACDGAHAVVICTEWDMFKELDYERIHKKMLKPAFIFDGRRVLDGLHNELQTIGFQIETIGKKVS",6,
"human UDP-glucose 6-dehydrogenase E161Q mutant (thiohemiacetal intermediate) (enzyme, UniProt O60701 1-467, looked up, Cys276 covalently modified: Sγ bonded to C6 of the UDP-Glc-derived substrate (thiohemiacetal)) MFEIKKICCIGAGYVGGPTCSVIAHMCPEIRVTVVDVNESRINAWNSPTLPIYEPGLKEVVESCRGKNLFFSTNIDDAIKEADLVFISVNTPTKTYGMGKGRAADLKYIEACARRIVQNSNGYKIVTEKSTVPVRAAESIRRIFDANTKPNLNLQVLSNPQFLAEGTAIKDLKNPDRVLIGGDETPEGQRAVQALCAVYEHWVPREKILTTNTWSSELSKLAANAFLAQRISSINSISALCEATGADVEEVATAIGMDQRIGNKFLKASVGFGGSCFQKDVLNLVYLCEALNLPEVARYWQQVIDMNDYQRRRFASRIIDSLFNTVTDKKIAILGFAFKKDTGDTRESSSIYISKYLMDEGAHLHIYDPKVPREQIVVDLSHPGVSEDDQVSRLVTISKDPYEACDGAHAVVICTEWDMFKELDYERIHKKMLKPAFIFDGRRVLDGLHNELQTIGFQIETIGKKVS",,binds
